Paper PMC12785156 (2025)
Positions count from the first letter of the chain named. One block for each binder: values may come before it.

Legend:
GST-PUB11-ARM = biological target: T1, GST-PUB11-ARM (Arabidopsis thaliana); test: MST
T1 chain: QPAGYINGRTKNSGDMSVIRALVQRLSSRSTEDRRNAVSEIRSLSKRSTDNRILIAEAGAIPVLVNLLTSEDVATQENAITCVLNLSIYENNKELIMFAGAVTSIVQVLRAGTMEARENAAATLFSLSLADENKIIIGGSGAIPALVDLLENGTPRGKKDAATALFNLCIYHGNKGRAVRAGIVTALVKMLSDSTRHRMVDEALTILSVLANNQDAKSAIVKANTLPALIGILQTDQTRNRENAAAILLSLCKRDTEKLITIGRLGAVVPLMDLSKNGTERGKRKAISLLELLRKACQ

GST = test: MST

Kd (GST-PUB11-ARM): 1.3 µM
B1: AtHPPD-F428Y (protein)
chain: MGHQNAAVSENQNHDDGAASSPGFKLVGFSKFVRKNPKSDKFKVKRFHHIEFWCGDATNVARRFSWGLGMRFSAKSDLSTGNMVHASYLLTSGDLRFLFTAPYSPSLSAGEIKPTTTASIPSFDHGSCRSFFSSHGLGVRAVAIEVEDAESAFSISVANGAIPSSPPIVLNEAVTIAEVKLYGDVVLRYVSYKAEDTEKSEFLPGFERVEDASSFPLDYGIRRLDHAVGNVPELGPALTYVAGFTGFHQFAEFTADDVGTAESGLNSAVLASNDEMVLLPINEPVHGTKRKSQIQTYLEHNEGAGLQHLALMSEDIFRTLREMRKRSSIGGFDFMPSPPPTYYQNLKKRVGDVLSDDQIKECEELGILVDRDDQGTLLQIFTKPLGDRPTIFIEIIQRVGCMMKDEEGKAYQSGGCGGFGKGNFSELYKSIEEYEKTLEAKQLVG
modifications: GST carrier omitted. Limits not printed: ARM region taken as everything after the U-box (240-314) to the C-terminus

Kd (GST-PUB11-ARM): 1.08 µM
B2: AtHPPD-F29Y (protein)
chain: B1 chain with F29Y, Y428F
modifications: GST carrier omitted. Limits not printed: ARM region taken as everything after the U-box (240-314) to the C-terminus

Kd (GST-PUB11-ARM): 1.6 µM
B3: AtHPPD-F52Y (antibody)
chain: B1 chain with F52Y, Y428F
modifications: GST carrier omitted. Limits not printed: ARM region taken as everything after the U-box (240-314) to the C-terminus

Kd (GST-PUB11-ARM): 0.23 µM
B4: AtHPPD-F47Y (protein)
chain: B1 chain with F47Y, Y428F
modifications: GST carrier omitted. Limits not printed: ARM region taken as everything after the U-box (240-314) to the C-terminus

Kd (GST-PUB11-ARM): 1.26 µM
B5: AtHPPD-F131Y (protein)
chain: B1 chain with F131Y, Y428F
modifications: GST carrier omitted. Limits not printed: ARM region taken as everything after the U-box (240-314) to the C-terminus

Kd (GST-PUB11-ARM): 1.65 µM
B6: AtHPPD-F202Y (protein)
chain: B1 chain with F202Y, Y428F
modifications: GST carrier omitted. Limits not printed: ARM region taken as everything after the U-box (240-314) to the C-terminus

Kd (GST-PUB11-ARM): 1.75 µM
B7: AtHPPD-F424Y (protein)
chain: B1 chain with F424Y, Y428F
modifications: GST carrier omitted. Limits not printed: ARM region taken as everything after the U-box (240-314) to the C-terminus

Kd (GST-PUB11-ARM): 46.7 µM
B8: AtHPPD-F419Y (protein)
chain: B1 chain with F419Y, Y428F
modifications: GST carrier omitted. Limits not printed: ARM region taken as everything after the U-box (240-314) to the C-terminus

Kd (GST): > 1000 µM
B9: His-AtHPPD (Arabidopsis thaliana 4-hydroxyphenylpyruvate dioxygenase) (enzyme)
chain: B1 chain with Y428F

Kd (GST-PUB11-ARM): 0.37 µM
B10: AtHPPD-F64Y (protein)
chain: B1 chain with F64Y, Y428F
modifications: GST carrier omitted. Limits not printed: ARM region taken as everything after the U-box (240-314) to the C-terminus

Kd (GST-PUB11-ARM): 2.38 µM
B11: AtHPPD-F132Y (protein)
chain: B1 chain with F132Y, Y428F
modifications: GST carrier omitted. Limits not printed: ARM region taken as everything after the U-box (240-314) to the C-terminus

Kd (GST-PUB11-ARM): 1.59 µM
B12: AtHPPD-F215Y (protein)
chain: B1 chain with F215Y, Y428F
modifications: GST carrier omitted. Limits not printed: ARM region taken as everything after the U-box (240-314) to the C-terminus
